# B1: G protein-coupled receptor 15 ligand (GPR15LG) (ligand, UniProt Q6UWK7 25-81, looked up)
# chain: KRRPAKAWSGRRTRLCCHRVPSPNSTNLKGHHVRLCKPCKLEPEPRLWVVPGALPQV
# notes: also called C10orf99; AP-57
# Key:
# [1] = target: C-X-C chemokine receptor type 4 (CXCR4), endogenous on SupT1 cells (human (endogenous in SupT1)) (UniProt P61073)
# [2] = target: ACKR3-LgBiT (UniProt P25106)
# [3] = target: CXCR4-LgBiT (UniProt P61073)
# [4] = target: CXCR4 N-terminally fused to Nanoluciferase (UniProt P61073); assay: FRET or BRET; NanoBRET ligand binding competition; HEK293T cells stably expressing the receptor N-terminally fused to Nanoluciferase; increasing concentrations of ligands with 10 nM CXCL12-AZ568; 2 h on ice
# [5] = target: T1, CXCR4 N-terminally fused to Nanoluciferase (UniProt P61073 1-352); assay: as above; details: one partner purified
# T1 construct: also called CXCR4 fused to a Nanoluciferase
# [6] = target: T2, C-X-C chemokine receptor type 4 (CXCR4), endogenous on SupT1 cells (human (endogenous in SupT1), UniProt P61073 1-352); assay: flow cytometry on cells; competition with APC-conjugated anti-human CXCR4 antibody clone 12G5 (ECL-2) on 5 x 10^4 SupT1 cells; compounds serially diluted in cold PBS; 90 min at 4 °C; MFI normalized to full stain (100%) and unstained (0%); details: one partner purified
# [7] = target: T2, C-X-C chemokine receptor type 4 …; assay: flow cytometry on cells; competition with PE-conjugated anti-human CXCR4 antibody clone 1D9 (N-terminus) on 5 x 10^4 SupT1 cells; compounds serially diluted in cold PBS; 90 min at 4 °C; MFI normalized to full stain (100%) and unstained (0%); details: one partner purified
Molecule,inhibition of CXCR4-tropic HIV-1 infection of TZM-bl reporter cells [1],"β-arrestin-2 recruitment to ACKR3 (NanoBiT, HEK293T) [2]","β-arrestin-2 recruitment to CXCR4 (NanoBiT, HEK293T) [3]",IC50 [4],IC50 [5],IC50 [6],IC50 [7]
"C-X-C motif chemokine ligand 12 (CXCL12), unlabelled (from UniProt P48061 22-93)",47.9 nM,30 nM,30 nM,36.7 nM,,,
B1,,,,,829 ± 139 nM,1300 ± 100 nM,~12100 nM
